Article doi:10.1101/2024.12.12.628194

Assays:
[1] = target: TaqCad1 (CARF-fused adenosine deaminase Cad1 from Thermoanaerobaculum aquaticum), wild type (Thermoanaerobaculum aquaticum); experiment: cryo-EM structure
[2] = target: TaqCad1 R408D/A411E variant (Thermoanaerobaculum aquaticum); experiment: SEC

Substance | stoichiometry N [1] | stoichiometry N [2]
TaqCad1 (CARF-fused adenosine deaminase Cad1 from Thermoanaerobaculum aquaticum), wild type (enzyme) | 6 | –
TaqCad1 R408D/A411E variant (enzyme) | – | 2
